Reference: patent US20150111836, “CELLULAR APOBEC3 PROTEINS AND MODULATORS THEREOF FOR REGULATING DNA REPAIR PROCESSES AND TREATING PROLIFERATIVE DISEASES” (YISSUM RESEARCH DEVELOPMENT COMPANY OF THE HEBREW …, published 2015)

How the values were obtained:
APOBEC3G (A3G) [1] = biological target: T1, APOBEC3G (A3G) (Homo sapiens, UniProt Q9HC16 SEQ:1-384); assay: EMSA; 8 min RT; settings: tags: C-terminal Myc-His6, expressed in 293T cells; chain copies: monomer to multimer (stated)
Method: (§1) FIG. 2D. A3G end-dependent association with ssDNA was assessed by electro-mobility shift assay (EMSA). S₁₆₀ oligonucleotide ends (3′, 5′, 3′+5′) were annealed to short complementary oligonucleotides (30 nt) and then incubated with A3G or BSA for 8 min at room temperature (RT). Acrylamide gels were stained with SYBR gold nucleic acid stain.

APOBEC3G (A3G) [2] = biological target: T1, APOBEC3G (A3G); assay: EMSA; either 3' or 5' ssDNA terminus required; 5' preference; settings: tags: C-terminal Myc-His6, expressed in 293T cells, chain copies: monomer to multimer (stated), 3' end 30 nt duplex
Method: as §1

APOBEC3G W285A = APOBEC3G W285A (Homo sapiens, UniProt Q9HC16 SEQ:1-384); assay: EMSA; binding similar to wild type; settings: tags: C-terminal His6, expressed in 293T cells; label: 3' dATP-biotin (TdT)
Chain of APOBEC3G W285A (Q9HC16 whole entry W285A): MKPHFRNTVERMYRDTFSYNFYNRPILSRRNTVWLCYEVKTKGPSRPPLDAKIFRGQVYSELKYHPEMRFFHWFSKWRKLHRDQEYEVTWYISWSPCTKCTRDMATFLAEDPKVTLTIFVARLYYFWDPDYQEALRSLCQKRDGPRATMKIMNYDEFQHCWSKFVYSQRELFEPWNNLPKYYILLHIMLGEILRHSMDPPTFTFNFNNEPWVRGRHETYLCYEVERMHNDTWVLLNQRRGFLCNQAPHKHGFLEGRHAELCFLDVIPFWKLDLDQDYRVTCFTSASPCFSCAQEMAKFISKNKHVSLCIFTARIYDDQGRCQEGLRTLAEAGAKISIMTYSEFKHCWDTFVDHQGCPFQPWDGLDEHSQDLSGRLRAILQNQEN
Method: (§2) FIG. 3B. Electro-mobility shift assay (EMSA). The indicated proteins were incubated with biotinylated SC oligonucleotides (80 nt) for 8 min at 37° C. and resolved by native PAGE. Acrylamide gels were transferred to nylon membranes and probed by enhanced chemiluminescence.

APOBEC3G (A3G) [3] = biological target: T1, APOBEC3G (A3G); assay: EMSA; 8 min 37 C; RPA pre-binding inhibits monomeric complex (FIG. 5C); settings: tags: C-terminal Myc-His6, expressed in 293T cells; chain copies: monomer to multimer (stated); label: 3' dATP-biotin (TdT)
Method: as §2

T1 sequence (Q9HC16 whole entry): as the sequence (Q9HC16 whole entry W285A) above, with A285W counted along it

B1: S160 (ssDNA)
DNA: GGATTGGTTGGTTATTTGTTTAAGGAAGGAAGAAGGAAGGCCCAATAAGGGAAGGCCCAATAAGTGGGAAGGCCCAATAAGTGAATTAAATAAGTGATTGATAAATAAGTGATTGATAAGTTGATTAAATAGTTGGAAGTTATGTTTGGTAGATTGATGG
binding result (APOBEC3G (A3G) [1]): binds

B2: S160 with 3' end double-stranded (mixed)
DNA 1: B1 DNA
DNA 2: CCATCAATCTACCAAACATAACTTCCATCA
binding result (APOBEC3G (A3G) [2]): binds

B3: SC (ssDNA)
DNA: GGATTGGTTGGTTATTTGTTTAAGGAAGGTGGATTAAAGGCCCATAAGGTGATGGAAGTTATGTTTGGTAGATTGATGG
binding result (APOBEC3G W285A): binds | binding result (APOBEC3G (A3G) [3]): binds
